Measured values: PMC6173638 (Cell, 2018)
Residue numbers refer to the chain shown, from its start. Numbers in names are those of the source.

Experiments:
[1] = target: Bosea sp. Root381 GapR(L48M-I54M-L73M), selenomethionine substituted (Bosea sp. Root381); assay: crystal structure
[2] = target: Bosea sp. Root381 GapR, wild type (Bosea sp. Root381); assay: crystal structure
crystal structure = target: the molecule itself; assay: crystal structure
GapR(11-89) WT = target: T1, GapR(11-89) WT (Caulobacter crescentus, UniProt B8H4R9 11-89); assay: X-ray crystallography
T1 sequence: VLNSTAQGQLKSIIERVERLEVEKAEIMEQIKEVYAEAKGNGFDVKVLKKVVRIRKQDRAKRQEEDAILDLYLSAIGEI

GapR(11-89) L83M SeMet = target: T2, GapR(11-89) L83M SeMet (Caulobacter crescentus, UniProt B8H4R9 11-89, L83M); assay: X-ray crystallography
T2 sequence: T1 sequence with L73M

SEC-MALS = target: the molecule itself; assay: SEC-MALS

“Bosea sp. Root381 GapR(L48M-I54M-L73M), selenomethionine substituted (natural protein)” showed a stoichiometry N [1] of 2.

Molecule “Bosea sp. Root381 GapR, wild type (natural protein)” has a stoichiometry N [2] of 4.

B1: C. crescentus GapR(11-89) L83M, selenomethionine substituted (domain or fragment, Caulobacter crescentus, UniProt B8H4R9 11-89, looked up)
chain: T1 sequence with L73M
modifications: selenomethionine substituted
With B1 the “stoichiometry N” value (crystal structure) was 4.

B2: AT-rich crystallization 11-mer (dsDNA)
DNA 1: TTAAAATTAAA
DNA 2: TTTAATTTTAA
B2: binds (GapR(11-89) WT); binds (GapR(11-89) L83M SeMet).

B3: Caulobacter crescentus GapR, untagged (natural protein, UniProt B8H4R9 1-89, looked up)
chain: MADDAIPHTDVLNSTAQGQLKSIIERVERLEVEKAEIMEQIKEVYAEAKGNGFDVKVLKKVVRIRKQDRAKRQEEDAILDLYLSAIGEI
B3 was tested, and the “stoichiometry N” value (SEC-MALS) was 2.
